The record followed here is patent US20120230990A1 (MERCK SERONO, published 2012).

For assay [1], the target named is T1, human IL-20 receptor alpha (human, UniProt Q9UHF4 30-250, limits assumed).
T1 construct: also called hIL-20R; IL-20R alpha
T1 sequence (looked up): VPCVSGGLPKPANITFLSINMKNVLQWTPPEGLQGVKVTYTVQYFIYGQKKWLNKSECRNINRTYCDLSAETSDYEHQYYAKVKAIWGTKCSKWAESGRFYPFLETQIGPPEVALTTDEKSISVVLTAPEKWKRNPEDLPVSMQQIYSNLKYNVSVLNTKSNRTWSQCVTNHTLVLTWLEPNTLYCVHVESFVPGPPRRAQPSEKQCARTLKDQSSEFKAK
The assay is described as follows: competitive ELISA: biotinylated 280-346-TSY on plate-coated human IL-22RA-ECD, soluble competitor titrated, peroxidase-conjugated streptavidin, OD 450nm. Here is the method: (§1) FIG. 23 reports the results of a competitive ELISA done to measure the specificity of 280.346.TSY to human IL-22RA. Microtiter plates were coated with human IL-22RA-ECD (i.e. IL-22RA-Extra Cellular Domain). Biotinylated 280-346-TSY antibody was added to the plate in the presence of competitors: human interleukin 22 receptor alpha (hIL-22RA), human IL-22 binding protein (hIL-22BP), murine IL-22 receptor alpha (mIL-22RA), human IL-10 receptor alpha (hIL-10R) and human IL-20 receptor alpha (hIL-20R).
(§2) Specificity and binding affinity of 280.346.TSY was determined using a competitive ELISA. Microtiter plates were coated with human IL-22RA-ECD (i.e. IL-22RA-Extra Cellular Domain). Biotinylated 280-346-TSY antibody was added to the plate in the presence of competitors: human interleukin 22 receptor alpha (hIL-22RA), human IL-22 binding protein (hIL-22BP), mouse IL-22 receptor alpha (mIL-22RA), human IL-10 receptor alpha (hIL-10R) and human IL-20 receptor alpha (hIL-20R).

Assay [2] concerns the target T2, human IL-10 receptor alpha (human, UniProt Q13651 22-235, limits assumed).
T2 construct: also called hIL-10R; IL-10R alpha
T2 sequence (looked up): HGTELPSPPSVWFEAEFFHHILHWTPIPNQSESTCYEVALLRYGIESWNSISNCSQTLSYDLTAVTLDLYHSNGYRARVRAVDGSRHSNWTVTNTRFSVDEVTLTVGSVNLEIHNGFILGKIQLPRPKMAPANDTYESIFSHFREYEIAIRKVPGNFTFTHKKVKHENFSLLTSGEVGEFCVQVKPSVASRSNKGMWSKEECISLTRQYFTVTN
The assay is described as above. Here is the method:
as §1, §2

Assay [3] addresses T3, human IL-22 binding protein (human, UniProt Q969J5-2 22-231, limits assumed).
T3 construct: also called hIL-22BP; IL-22BP
T3 sequence (looked up): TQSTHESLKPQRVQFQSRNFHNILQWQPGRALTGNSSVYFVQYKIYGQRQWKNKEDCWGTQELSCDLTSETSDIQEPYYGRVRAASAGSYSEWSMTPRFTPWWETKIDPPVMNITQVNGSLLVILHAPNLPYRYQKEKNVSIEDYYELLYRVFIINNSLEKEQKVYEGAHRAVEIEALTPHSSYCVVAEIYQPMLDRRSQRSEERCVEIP
The description is as above. Here is the method: as §1, §2

Assay [4] deals with T4, marmoset monkey IL-22RA-ECD (marmoset monkey).
T4 construct: extracellular domain; Produced in HEK-293 cells and NiNTA-purified
The assay is described as follows: KinExA, IL-22RA-ECD with 6 His tag. Background: A kinetic exclusion assay measures how much of one partner remains free in solution.

In assay [5] the target is T5, mouse IL-22RA-ECD (mouse, UniProt Q80XZ4 16-230).
T5 construct: extracellular domain; Produced in HEK-293 cells and NiNTA-purified; not shown: 6 His tag
T5 sequence (looked up): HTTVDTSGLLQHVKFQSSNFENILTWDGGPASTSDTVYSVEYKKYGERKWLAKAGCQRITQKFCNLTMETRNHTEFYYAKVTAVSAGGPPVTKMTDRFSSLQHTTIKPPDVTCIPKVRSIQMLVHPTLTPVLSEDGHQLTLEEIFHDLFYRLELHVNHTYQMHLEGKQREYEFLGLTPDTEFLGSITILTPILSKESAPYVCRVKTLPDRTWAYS
The assay is described as follows: KinExA, IL-22RA-ECD with 6 His tag.

For assay [6], the target named is T6, human IL-22RA-ECD (IL-22RA-Extra Cellular Domain) (human, UniProt Q8N6P7 16-228).
T6 construct: also called human IL-22RA extracellular domain; hIL-22RA coated on the plates; not shown: 6 His tag
T6 sequence: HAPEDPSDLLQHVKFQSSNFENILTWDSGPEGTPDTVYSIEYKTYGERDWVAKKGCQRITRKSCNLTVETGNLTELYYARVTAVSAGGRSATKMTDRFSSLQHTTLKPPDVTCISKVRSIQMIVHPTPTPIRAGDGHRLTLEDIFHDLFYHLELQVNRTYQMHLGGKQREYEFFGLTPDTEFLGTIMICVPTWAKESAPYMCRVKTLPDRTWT
Description: KinExA, IL-22RA-ECD with 6 His tag.

Assay [7] addresses T7, rhesus monkey IL-22RA-ECD (rhesus monkey).
T7 construct: extracellular domain; Produced in HEK-293 cells and NiNTA-purified
The assay is described as follows: KinExA, IL-22RA-ECD with 6 His tag.

For assay [8], the target named is T8, rat IL-22RA-ECD (rat).
T8 construct: extracellular domain; Produced in HEK-293 cells and NiNTA-purified
The assay is described as follows: KinExA, IL-22RA-ECD with 6 His tag.

The target of assay [9] is T9, cynomolgus monkey IL-22RA-ECD (cynomolgus monkey).
T9 construct: extracellular domain; Produced in HEK-293 cells and NiNTA-purified
The assay is described as follows: KinExA, IL-22RA-ECD with 6 His tag.

B1: 280.346.TSY (humanized anti-human IL-22RA antibody comprising 280.VH3-66-46 paired with 280.VK4-1-TSY, human IgG1/kappa) (antibody, V domains shown)
VH: EVQLVESGGGLVQPGGSLRLSCAASGYSITAEYMNWVRQAPGKGLEWIGEINPSTGTTTYNQKFKGRFTISVDQSKNTAYLQMNSLRAEDTAVYYCARFDAYFDYWGQGTLVTVSS
VL: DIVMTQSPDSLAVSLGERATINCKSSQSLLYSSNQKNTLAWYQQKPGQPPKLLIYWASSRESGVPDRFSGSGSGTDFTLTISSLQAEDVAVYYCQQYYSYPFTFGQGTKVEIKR
notes: Produced in CHO cells; also called 280.VH3-66-46/VK4-1-TSY; 280.VH3-66.46 paired with 280.IGKV4-1-TSY
As for B1, the binding result in assay [1], in assay [2] and in [3] was “no binding” each time. For the same molecule, the Kd in assay [4] is around 0.0385 nM; in assay [5], around 4.85 nM; in assay [6], around 0.0285 nM; in [7] it was around 0.137 nM; in assay [8] it was around 587 nM; in assay [9] it was around 0.0645 nM.

As a reminder, the Kd is the constant that tells how readily two partners part at equilibrium.
